target: MCP-1RB (monocyte chemoattractant protein-1 receptor B) (human) (UniProt P41597); assay: cell-based or functional assay
Sequence (P41597 other isoform, or with tags, fused parts or gaps): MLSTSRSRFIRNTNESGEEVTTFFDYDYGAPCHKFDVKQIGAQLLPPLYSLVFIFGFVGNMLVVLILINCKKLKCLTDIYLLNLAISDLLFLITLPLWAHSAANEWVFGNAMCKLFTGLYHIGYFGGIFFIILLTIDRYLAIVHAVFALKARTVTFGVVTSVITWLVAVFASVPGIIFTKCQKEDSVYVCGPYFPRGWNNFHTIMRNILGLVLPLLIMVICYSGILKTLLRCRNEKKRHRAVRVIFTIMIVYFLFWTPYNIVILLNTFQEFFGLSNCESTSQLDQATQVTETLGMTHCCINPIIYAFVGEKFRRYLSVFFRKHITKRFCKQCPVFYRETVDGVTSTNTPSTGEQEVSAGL

Row | Substance | IC50(nM), Inhibition of Adenylyl Cyclase
1 | Gro-α (from UniProt P09341 35-107) (ligand) | > 1000 nM
2 | MIP-1α (from UniProt P10147 27-92) (ligand) | > 1000 nM
3 | RANTES (from UniProt P13501 24-91) (ligand) | > 1000 nM

Further lines, results first:

Row | IC50(nM), Inhibition of Adenylyl Cyclase | Substance
4 | > 1000 nM | IL-8 (interleukin-8) (from UniProt P10145 28-99) (ligand)
5 | > 1000 nM | MIP-1β (from UniProt P13236 24-92) (ligand)

target: MIP-1α/RANTES receptor (Homo sapiens (Human)) (UniProt P32246); assay: cell-based or functional assay
Sequence (P32246 whole entry): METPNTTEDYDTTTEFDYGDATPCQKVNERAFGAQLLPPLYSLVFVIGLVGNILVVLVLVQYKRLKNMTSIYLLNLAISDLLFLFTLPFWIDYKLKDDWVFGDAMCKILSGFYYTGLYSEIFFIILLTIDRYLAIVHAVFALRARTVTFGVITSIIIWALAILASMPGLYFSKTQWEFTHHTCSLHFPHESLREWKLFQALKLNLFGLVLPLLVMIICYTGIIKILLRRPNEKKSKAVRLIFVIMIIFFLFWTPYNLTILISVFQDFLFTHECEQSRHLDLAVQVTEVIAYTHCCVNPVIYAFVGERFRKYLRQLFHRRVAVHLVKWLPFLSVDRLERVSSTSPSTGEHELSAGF

Row | IC50(nM), Inhibition of Adenylyl Cyclase | Substance
6 | > 1000 nM | Gro-α (from UniProt P09341 35-107) (ligand)

Source: US7105641
